Results on one protein are retold here after article PMC8766848, “The Structural Basis of Babesia orientalis Lactate Dehydrogenase” (Frontiers in Cellular and Infection Microbiology, 2022).

Substrate in data set [1]: C[C@H](O)C(=O)O
The data set is described as follows: purified protein. To be noted: NAD+.

Substrate in data set [2]: NC(=O)c1ccc[n+]([C@@H]2O[C@H](COP(=O)([O-])OP(=O)(O)OC[C@H]3O[C@@H](n4cnc5c(N)ncnc54)[C@H](O)[C@@H]3O)[C@@H](O)[C@H]2O)c1
The data set is described as follows: purified protein. To be noted: varied: cofactor.

Substrate in data set [3]: CC(=O)C(=O)O
The data set is described as follows: purified protein. Format: biochemical, Babesia orientalis. To be noted: NADH.

Substrate in data set [4]: NC(=O)C1=CN([C@@H]2O[C@H](COP(=O)(O)OP(=O)(O)OC[C@H]3O[C@@H](n4cnc5c(N)ncnc54)[C@H](O)[C@@H]3O)[C@@H](O)[C@H]2O)C=CC1
The data set is described as follows: purified protein. Format: biochemical, Babesia orientalis. Particulars: varied: cofactor.

Substrate in data set [5]: CC(=O)c1ccc[n+]([C@@H]2O[C@H](COP(=O)([O-])OP(=O)(O)OC[C@H]3O[C@@H](n4cnc5c(N)ncnc54)[C@H](O)[C@@H]3O)[C@@H](O)[C@H]2O)c1
As to the kind of experiment: enzyme kinetics (Km), used as synthetic cofactor, lactate to pyruvate. It is filed as biochemical, Babesia orientalis. To be noted: varied: cofactor. An excerpt:
enzyme kinetics (Km), used as synthetic cofactor, lactate to pyruvate on Babesia orientalis lactate dehydrogenase (BoLDH) | BoLDH catalyzes the conversion of lactate to pyruvate using synthetic APAD^+ instead of NAD^+ as a cofactor

B1: Babesia orientalis lactate dehydrogenase (BoLDH) (Babesia orientalis) (protein)
chain: MLKGFLSTMSPAVRRNKISLIGAGNIGGVMAYLAQLKELGDVVLFDIAPKLGEAKALDIMHANAIYDTAHKAIGTANYEDIADSDVCIITAGLAKLPNKKDEEWSRDDLVAPNSKIMFTIGDNIKKYAPNAFVICITNPLDVMVKMLLKATGFPKNKVVGMGGLLDSSRMCHYIADKLNVNPRYVHGSCIGGHGDSMIPLVNHVTVNGIPIQLFVERGDITQAELDKIAQRTIGSGMELVQLYGNGSAYFAPATAAIEMASAYLNDKKSVIVCSCYLEGEYGHSDVYLGTPAIIGANGIEKIITLKLSSEEQAKLDASVKEIMRLEALAG
notes: full-length ORF (330 residues), N-terminal His6 tag, recombinant rBoLDH
One may read the Km as the concentration of substrate that gives half-maximal velocity. What is called kcat is the maximal rate divided by the concentration of active sites. In general, kcat/Km refers to the second-order rate constant that governs catalysis at low substrate concentration. In the case of B1, the Km amounted to 166 ± 24.2 µM in “purified protein [1]”; 493 ± 69.2 µM in the data set “purified protein [2]”; 102 ± 19.2 µM in the data set “purified protein [3]”; 126 ± 19.9 µM in “purified protein [4]”; 395 ± 49.9 µM in data set [5]. The kcat was 30.5 s⁻¹ in the data set “purified protein [1]”; 21.5 s⁻¹ in “purified protein [2]”; 56.5 s⁻¹ in “purified protein [3]”; 115 s⁻¹ in “purified protein [4]”; 62.3 s⁻¹ in data set [5]. In addition, the kcat/Km came out at 184000 M⁻¹ s⁻¹ in “purified protein [1]”; 43600 M⁻¹ s⁻¹ in the data set “purified protein [2]”; 554000 M⁻¹ s⁻¹ in “purified protein [3]”; 913000 M⁻¹ s⁻¹ in the data set “purified protein [4]”; 157000 M⁻¹ s⁻¹ in data set [5].
